# Paper PMC314469, “Protein Interaction Networks by Proteome Peptide Scanning” (PLoS Biology, 2004)
# T1: Yfr024 SH3 (LSB3_YEAST), P43603
# T1 chain: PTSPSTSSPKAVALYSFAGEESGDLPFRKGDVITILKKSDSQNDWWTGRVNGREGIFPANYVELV
# T2: Yhr016c SH3 (YSC84_YEAST), P32793
# T2 chain: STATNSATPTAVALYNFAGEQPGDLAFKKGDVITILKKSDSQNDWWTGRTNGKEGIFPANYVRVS
# T3: Rvs167 SH3 (RV167_YEAST), P39743
# T3 chain: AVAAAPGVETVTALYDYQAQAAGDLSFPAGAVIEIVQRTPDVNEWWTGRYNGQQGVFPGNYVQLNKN
# T4: Boi2 SH3 (BOI2_YEAST), P39969
# T4 chain: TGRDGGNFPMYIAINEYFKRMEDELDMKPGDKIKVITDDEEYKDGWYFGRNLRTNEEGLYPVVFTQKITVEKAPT
# T5: Boi1 SH3 (BOI1_YEAST), P38041
# T5 chain: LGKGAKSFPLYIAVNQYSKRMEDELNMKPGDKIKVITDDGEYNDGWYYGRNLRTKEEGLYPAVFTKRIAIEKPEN
# Assays:
# Assay in all cases: SPOT array
# [1] = target: T1, Yfr024 SH3 (LSB3_YEAST), P43603
# [2] = target: T2, Yhr016c SH3 (YSC84_YEAST), P32793
# [3] = target: T3, Rvs167 SH3 (RV167_YEAST), P39743
# [4] = target: T4, Boi2 SH3 (BOI2_YEAST), P39969
# [5] = target: T5, Boi1 SH3 (BOI1_YEAST), P38041
Binder,"normalised SPOT signal, Boehringer light units (BLU); mean over the file's lines of this peptide [1]","normalised SPOT signal, Boehringer light units (BLU); mean over the file's lines of this peptide [2]","normalised SPOT signal, Boehringer light units (BLU); mean over the file's lines of this peptide [3]","normalised SPOT signal, Boehringer light units (BLU); mean over the file's lines of this peptide [4]","normalised SPOT signal, Boehringer light units (BLU); mean over the file's lines of this peptide [5]"
THAPTTPNRTSPNR [YHL007C 507-520],14600,4050,552,14.4,74.3
TKTPTQPIRLQTVS [YER068W 519-532],1360,234,104,60.2,139
TGRPDKPFRALLVD [YLR289W 228-241],5660,656,789,47.3,110
TGFPPTPLKREGVG [YOR191W 815-828],1730,430,58.1,54,7.5
TKKPRPPVKSKPKH [YOR367W 153-166],344,127,54.9,25.1,61.5
TEVPSKPKKPSKTE [YDR464W 568-581],3310,67.2,75.4,39.9,361

# More lines, now with the values ahead:
"normalised SPOT signal, Boehringer light units (BLU); mean over the file's lines of this peptide [1]","normalised SPOT signal, Boehringer light units (BLU); mean over the file's lines of this peptide [2]","normalised SPOT signal, Boehringer light units (BLU); mean over the file's lines of this peptide [3]","normalised SPOT signal, Boehringer light units (BLU); mean over the file's lines of this peptide [4]","normalised SPOT signal, Boehringer light units (BLU); mean over the file's lines of this peptide [5]",Binder
259,324,38,37.5,82.1,TLIPPIPEKQSIKN [YDL113C 210-223]
4410,416,44,27.3,152,TKVPSKPDRNSKIL [YGL207W 463-476]
746,144,78.4,74.6,57.7,TGLPKKPLKTIRLV [YOL090W 24-37]
